assay: soluble on expression in E. coli; label from the status in PepcDB or PDB records

| Sequence | soluble on expression in E. coli |
| --- | --- |
| MAHHHHHHMSAMSSSDDAPPHQRLASEQSKRDSGAHVGAREHIHDAPTLSARARFLRELERYASDDDDYGGNGGAAVVGAGPMRQPNQANGAPQRRTAFPLVSATRAAAPSVGPSSSSDFFFGGEGGSHDEADDEDVGEDAVWSTASAASLARTLNGVPVTGSTSDIGTTGGSAAPSRVGLQLLHRMHALSTSGDRRSSGHDSAVHSAATRANVMIPQTSPTPTSSADFEVVHAYVPLSTGGFLSTANAAHDTMEGYQVRIGDVLSLRKPLSCTDPPPSSAVASAPASSPTTSTATPSIAALTLTTGSAAAGASATGSLVKDVAQKAMGHFKSAATFTSEEQKYGRKLTPDMVRLLFEVTRVDYQGRSIEALFLDGTRAKVSFFEVRPAGYVERKMYATWKADPSSRPVTIIHSNASSPTTSSAPNGAVMPSSVPSPALPPPPSVTAAAWWVIPRLLVRVTTEAAGDWYGKKCVVKAVQRSENRVRLAEWVEEGRSDGGESGSRSFHNCGKPTAATAETRELIGVDGLETVVPKKGGRAMVVLGSRRGEMCTVRNRVRGADGELTAVEVEISRTKEVMTLQAGELCALAR | soluble |
| MGSDKIHHHHHHMQNTSYIALSRQAALWRQMEVVANNMANANTPAFKGEEMMFREFLVPTRSSERAIGGKLAFVQDVGVLRDTREGPLTKTDNPLDFALHGDGYFQIETEAGMRYARNGHFRLDQTGMLVNSQGYAVMDDRDQPIVFAPNETRVEVASDGTVSTENGRVARMKVVKFENDQLLRKAGDSLFETTQDPEAVQSPNVAQGMMEESNVQPVLEMTRMTQILREYQGVQKMLDAEHERQLKAIQTLGSSKTN | not soluble |
| MSLQPTAGETTFERVRRTRKLRIGAVNGGAPYYYRDLASGQWKGFYIDICKALADEMECELDVTETTWGNSVLDLQAGKTDVFFGLNPTPKRALVVDFSVPVFANAFTFITRKGFERKTWAEMNDPAVRIAVDAGSSHDAVVTRLAPKAQITRLKGADDATAALQAGRVDAQCLVFILSLTVLKKNPALGQFTLPTPIFSTTSNAGFRREADKTWRDYVSTWIEFNKGMGFIRSAIIGNLESEGHHHHHH | not soluble |
| MGSGESTTRRVSFGLDEDDRVRILRGVKLSEDVLQRMRNTNADPRPPANNKENQGHQTRTPSTSDAQAPKTQAKTTFPDSKEELKKRYEQQQAIIQEELARIARKEREAARQDISRAVQRERAQTRQESERAKQLGKQLDKKEAELKALEAFYQEQITQLEKKNEERFRMSAEQFHAAATRSEANIKARNVEPVCLNLQAQILNCYRENREQTLQCSDLAKEYMQCINAAKKNLLVNHG | not soluble |
| MISVNDFRTGLTIAVDNGLWQVLDFQHVKPGKGAAFVRSKLRNLRTGSVQEKTFRAGEKVEKAHIENRRMQYLYASGEAHVFMDNGTYEQIELGEKQIERELKFLKENMEVSIMTYQGEVLGVELPNTVELQVTETEPGIKGDTASNVTKPATLETGLVVQVPIFINEGEMLIINTGEGKYVSRA | soluble |
| MVKLAEFSRTATFAWSHDKIPLLVSGTVSGTVDANFSTDSSLELWSLLAADSEKPIASLQVDSKFNDLDWSHNNKIIAGALDNGSLELYSTNEANNAINSMARFSNHSSSVKTVKFNAKQDNVLASGGNNGEIFIWDMNKCTESPSNYTPLTPGQSMSSVDEVISLAWNQSLAHVFASAGSSNFASIWDLKAKKEVIHLSYTSPNSGIKQQLSVVEWHPKNSTRVATATGSDNDPSILIWDLRNANTPLQTLNQGHQKGILSLDWCHQDEHLLLSSGRDNTVLLWNPESAEQLSQFPARGNWCFKTKFAPEAPDLFACASFDNKIEVQTLQNLTNTLDEQETETKQQESETDFWNNVSREESKEKPSVFHLQAPTWYGEPSPAAHWAFGGKLVQITPDGKGVSITNPKISG | soluble |
| MSTQNYPATGRLAEPEYGTLLVKNVKIYGEGEPVNVLITDGVITDTHAGDVKADREVDGQGGVLLPGLVDIHVHLREPGREDTETIATGSAAAAKGGFTAVFTMANTMPVMDQPIIAESVWHKGQDIGLCDVHPVGSITKGLEGKEITEFGMMAHSQAKVRMFSDDGKCVDNPLIMRRAVEYARGTDVLLAQHCEDPRLTDGAVAHEGAMAAKLGLGGWPRVAEESIVARDAILARDYGGRMHICHASTQGTVELVKWAKEHEIPLTAEVTPHHLLLTDERLATYDGVNRVNPPLRENSDILALRDALLNGTIDCVATDHAPHGSEDKCCEFEHAKPGMLGLETSLAVVAAVFVETGLADWRFVAKVMSERPAEIVKLPGHGRPIAVGEPANLTIVDPGAKWTASGEKMASKATNTPYEGMEFNARVTTTILRGRLTCVDGEPTQARA | not soluble |
| PFLELDTNLPANRVPAGLEKRLCAAAASILGKPADRVNVTVRPGLAMALSGSTEPCAQLSISSIGVVGTAEDNRSHSAHFFEFLTKELALGQDRILIRFFPLESWQIGKIGTVMTFL | soluble |
